{"source": "paper doi:10.1101/2025.10.14.682086v1", "key": {"[1]": {"substrate": "NC(=O)C1=CN([C@@H]2O[C@H](COP(=O)(O)OP(=O)(O)OC[C@H]3O[C@@H](n4cnc5c(N)ncnc54)[C@H](O)[C@@H]3O)[C@@H](O)[C@H]2O)C=CC1", "assay": "purified protein, by the assay type", "conditions": "25.0 °C"}, "[2]": {"substrate": "CC1=CC(=O)c2ccccc2C1=O", "assay": "purified protein, by the assay type", "conditions": "25.0 °C"}}}
{"protein": "Ec-NDH2 (Escherichia coli K-12) (protein) TTPLKKIVIVGGGAGGLEMATQLGHKLGRKKKAKITLVDRNHSHLWKPLLHEVATGSLDEGVDALSYLAHARNHGFQFQLGSVIDIDREAKTITIAELRDEKGELLVPERKIAYDTLVMALGSTSNDFNTPGVKENCIFLDNPHQARRFHQEMLNLFLKYSANLGANGKVNIAIVGGGATGVELSAELHNAVKQLHSYGYKGLTNEALNVTLVEAGERILPALPPRISAAAHNELTKLGVRVLTQTMVTSADEGGLHTKDGEYIEADLMVWAAGIKAPDFLKDIGGLETNRINQLVVEPTLQTTRDPDIYAIGDCASCPRPEGGFVPPRAQAAHQMATCAMNNILAQMNGKPLKNYQYKDHGSLVSLSNFSTVGSLMGNLTRGSMMIEGRIARFVYISLYRMHQIALHGYFKTGLMMLVGSINRVIRPRLKLH", "values": [{"measurement": "Km", "setting": "[1]", "value": "1.7 ± 1.09", "unit": "µM"}, {"measurement": "kcat", "setting": "[1]", "value": "43.6 ± 4", "unit": "s⁻¹"}, {"measurement": "Km", "setting": "[2]", "value": "15.6 ± 8.5", "unit": "µM"}, {"measurement": "kcat", "setting": "[2]", "value": "107 ± 13.1", "unit": "s⁻¹"}]}
{"protein": "Mc-NDH2 (Methylococcus capsulatus str. Bath) (protein) MQRKRNEQPLPRILIIGGGAGGLELATKLGRTLGKKGKAQVTLIDAHPTHIWKPLLHEVAAGTMDVNDDELDYLAQANACHFRFVLGRMSGLDRVAKQVKLAPMTNAAGEEVIPACSYPYDILVIAVGSVCNDFGVPGVAQNCIFLDTTEEAQQFHRRLLEAYMRAHAMGGAKQPGQLDVAIVGGGATGIELSAQLHQATRLLAAYGLDNVKPSDIKIHLIEAAPRLLPELPPRLSESTVKQLLALDVQLHLGERVVEARPDGVLTHTGKFIPATLKVWAAGVKAPDFLAQTDLETNRLNQVVVRQTLQTTRDDHIFAIGDCSACPWPERNTTVPPRAQSAHQQASTAYENILRLLAGKAPVDYRYRDYGSLVSLGKYSTVGNLMGNLLGSVMIEGVIARLVYLSLYKMHQYALFGPLRVGLIMIAHFFSQKLRPKIKLH", "values": [{"measurement": "Km", "setting": "[1]", "value": "9.5 ± 5.3", "unit": "µM"}, {"measurement": "kcat", "setting": "[1]", "value": "9.08 ± 1.1", "unit": "s⁻¹"}, {"measurement": "Km", "setting": "[2]", "value": "12.9 ± 5.4", "unit": "µM"}, {"measurement": "kcat", "setting": "[2]", "value": "3.9 ± 0.4", "unit": "s⁻¹"}]}
